# B1: antibody PG9 (antibody, V domains shown)
# VH: QRLVESGGGVVQPGSSLRLSCAASGFDFSRQGMHWVRQAPGQGLEWVAFIKYDGSEKYHADSVWGRLSISRDNSKDTLYLQMNSLRVEDTATYFCVREAGGPDYRNGYNYYDFYDGYYNYHYMDVWGKGTTVTVSS
# VL: QSALTQPASVSGSPGQSITISCNGTSNDVGGYESVSWYQQHPGKAPKVVIYDVSKRPSGVSNRFSGSKSGNTASLTISGLQAEDEGDYYCKSLTSTRRRVFGTGTKLTVL
# Biological target: 1JO8-ZM109 (V1/V2 of HIV-1 strain ZM109 in the 1JO8 scaffold) (not stated | HIV-1 strain ZM109)
binder,measurement,value
B1,fold lower affinity than for wild-type ZM109 gp120,3 fold
